# ± gives the standard deviation of the averaged measurements.
# Tested on: ATP
# Test: switch fluorescence ratio, 500 uM ATP over buffer (Cy3 cluster intensity, sum of 5 cycles each) (fold (ratio)); higher = stronger signal-on switching upon ATP binding; sequences stand for … in TCGTCGGCAGCGTCAGATGTGTATAAGAGACAGTTTTTTTTTTTTTTTTTTTTTTTTT…TC
# Settings: aptamer strand: ATP DNA aptamer (quencher-CACCTGGGGGAGTATTGCGGAGGAAGG + anchor), 100 nM annealed; ATP concentration: 500 uM
# Outline: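 Clusters carrying Cy3-labelled switching strands on a modified Illumina MiSeq flow-cell were annealed to 100 nM quencher-labelled ATP aptamer and imaged in selection buffer. They were imaged again after 15 min with 500 uM ATP at 22 °C, over five buffer/ATP cycles with NaOH stripping and re-annealing in between. For each cluster, the fluorescence ratio is the summed Cy3 intensity of the target cycles divided by that of the buffer cycles, averaged per switch-domain sequence. Clusters outside 100-1000 RFU were left out.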
# 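Further: ATP exposure 15 min at 22 °C before imaging.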
row,Sequence,switch fluorescence ratio
1,TAACTTGCTC,1.05 ± 0.054
2,AAGGGTTGTT,1.01 ± 0.032
3,TATGGTGCG,0.984 ± 0.011
4,TTGGGGAGTG,0.988 ± 0.017
5,ATAGTGTGGT,0.986 ± 0.083
6,TCGGGTTCTC,0.967 ± 0.0091
7,ATTCTGCTCC,0.991 ± 0.041
8,TTAGGCCTTT,0.972 ± 0.048
9,GGGGACGGGT,1.01 ± 0.14
10,TTTGGACTAT,1.012 ± 0.0038
11,CGTTGAATAT,1.01 ± 0.016
12,TATATTAGCT,1.01 ± 0.026
13,GATTCTCTAT,1.008 ± 0.0033
14,GGGGATTAGA,0.9846 ± 0.0072
15,GGGTTGAGTT,0.9849 ± 0.0035
16,TATTAGTTTG,0.997 ± 0.024
17,TTTGTAGGGT,0.971 ± 0.011
18,TACGTGCATT,1.0476 ± 0.00035
19,ATTAATAGTT,0.997 ± 0.053
20,TTTATTGTTA,1.05 ± 0.068
21,ATCAAGGGGT,1.01 ± 0.019
22,GGAGAAAAGA,0.9862 ± 0.0076
23,ATGATTTCGT,0.9793 ± 0.0085

row,Sequence,switch fluorescence ratio
1,AAAAAACGCC,1.02 ± 0.027
2,TATAAGGGGG,0.982 ± 0.021
3,TTTCGCGGGC,1.94 ± 0.53
4,GGGGATGGAA,1.02 ± 0.013
5,TGGAAAGTGT,0.987 ± 0.018
6,CAATGGCCGA,0.9978 ± 0.0068
7,ACTTAGACAC,1.095 ± 0.0089
8,ACGACTTTTG,0.995 ± 0.042
9,TTGGATGTAC,1.14 ± 0.15
10,TAATGACGCT,0.997 ± 0.027
11,ATGTGGGTTT,0.974 ± 0.021
12,GAAGGAGGGC,0.995 ± 0.085
13,ATTCGTTGG,1 ± 0.038
14,GCTCTGGGGT,1.02 ± 0.033
15,GAGGGCCTGA,1.01 ± 0.012
16,TTGAGAATCC,1.007 ± 0.0087
17,TAATTTGAAC,1.02 ± 0.043
18,TGACTTGAGC,1.01 ± 0.058
19,TGATACTGGG,1.06 ± 0.06
20,GTTGAAGGGG,1.029 ± 0.009
21,TTTAGATTGG,0.9945 ± 0.0086
22,GGTGATGGGC,1.01 ± 0.062
23,AGAGGGTGCG,0.934 ± 0.041

row,Sequence,switch fluorescence ratio
1,GTGTGAGTTC,1.01 ± 0.017
2,TTCATAGCTT,1.02 ± 0.043
3,CACCGAGTTA,1.04 ± 0.032
4,CATACGTAGT,1.01 ± 0.034
5,CAGGTATATG,1.01 ± 0.017
6,TAGAGAAATA,1.01 ± 0.064
7,TGCAACCTCC,2.29 ± 1.1
8,TCATCGGGTC,1.05 ± 0.017
9,TTATGGGATT,0.993 ± 0.019
10,GGGAATCGGC,1 ± 0.032
11,CAGTATCTGA,1 ± 0.0047
12,AGTTATCCAT,1.001 ± 0.0083
13,CCGGGCTCTG,1.06 ± 0.013
14,AATTGAGTAT,1.01 ± 0.015
15,GCAGACAGCT,1.037 ± 0.0085
16,TGGCAGGTTG,1.01 ± 0.013
17,AGGGGCAAAT,1.01 ± 0.029
18,CTTGGGGAAT,1.13 ± 0.24
19,TGCGGATGTT,0.953 ± 0.013
20,ACTTGCACTT,1.22 ± 0.038
21,TGTGGCGCCA,0.987 ± 0.04
22,AGAGGGCGGG,0.98 ± 0.031
23,CATCCTTTTA,1.054 ± 0.0037

row,Sequence,switch fluorescence ratio
1,TAGGTGGTTG,1 ± 0.03
2,AGCCGATATT,0.967 ± 0.015
3,TTTAGAGAGT,1.01 ± 0.018
4,TTTGGCTTAC,1.55 ± 0.72
5,ATGATAGAGG,0.991 ± 0.025
6,CCCTGAGGAT,1.01 ± 0.031
7,TGAGAAAGGG,0.982 ± 0.0019
8,TCGTATTTGG,0.993 ± 0.032
9,GGTCGTTGGT,1.04 ± 0.022
10,AAGAAGGATG,0.982 ± 0.049
11,AAAGTGGCCC,0.997 ± 0.018
12,GGGGGGTAGA,1.02 ± 0.043
13,GCGCTAGGTG,2.19 ± 0.12
14,TCCGATTTGT,1.02 ± 0.08
15,GTAAAATGTT,1.03 ± 0.035
16,GCGTCAATTA,1.08 ± 0.03
17,AAAGATGCGG,1.01 ± 0.066
18,TTGGGTTCCC,1.01 ± 0.05
19,CGGTTGGCGG,0.996 ± 0.038
20,ACCGAGCATG,1.36 ± 0.1
21,ACTTTGGAGG,1.02 ± 0.034
22,TTTGTAATTT,1.01 ± 0.021
23,ATAGGATTTT,0.985 ± 0.034

row,Sequence,switch fluorescence ratio
1,CTAACTGAG,1.03 ± 0.017
2,AGAAGTGTTT,1.022 ± 0.0063
3,TTGAGGTTA,1.07 ± 0.069
4,GGGGGGGCCC,1.01 ± 0.026
5,AAGCAAATCT,1.18 ± 0.04
6,GGTCTAGATT,0.988 ± 0.013
7,GACATAAATG,1.03 ± 0.12
8,AAAACATGGA,0.9537 ± 0.0037
9,TGGTGCATTT,1.06 ± 0.14
10,CTAGCTTACT,1.36 ± 0.065
11,AAAAAAATGC,0.974 ± 0.037
12,GCGAGAGCTG,0.992 ± 0.017
13,TCAACCAATG,1.04 ± 0.0039
14,GGGTGGCTTT,0.9872 ± 0.0083
15,GAGTTGTGCC,1.1 ± 0.032
16,GTTTTAAAGT,1.02 ± 0.017
17,TTTACGAGGG,0.977 ± 0.015
18,TCGAGCGAAC,2.1 ± 0.53
19,AACCTTATCA,1.07 ± 0.02
20,GGTTATCTTT,0.982 ± 0.047
21,GCTTTGTTTT,1.12 ± 0.3
22,TAGGAAATTA,1 ± 0.015
23,GATAGAGTAG,1.016 ± 0.0019

row,Sequence,switch fluorescence ratio
1,GGTCGGGCTT,1.01 ± 0.034
2,ATTGTGATGA,1.024 ± 0.0085
3,GTGGGGAATG,0.986 ± 0.024
4,TTTGTGTTCA,0.98763 ± 0.00075
5,ATTTGCTTAG,0.994 ± 0.021
6,AATGGTGAAT,0.996 ± 0.03
7,TGATTCGGGT,0.984 ± 0.029
8,TACCAAAGAA,1.04 ± 0.026
9,AAAGGGGGAT,1 ± 0.023
10,CCAGTACCTT,1.09 ± 0.03
11,AGCATTGTCA,1.01 ± 0.013
12,GACACGGGGA,1.01 ± 0.041
13,CACGGTTGGG,0.976 ± 0.034
14,AGTAGTAGGA,1.01 ± 0.017
15,GTTGTTAAGG,0.996 ± 0.014
16,AGGGGGGTAT,0.993 ± 0.027
17,GTGGGACTGT,1.015 ± 0.0021
18,TATCGGCTGG,1.01 ± 0.025
19,CGTACTTTTT,1 ± 0.032
20,CATGATGGAG,0.999 ± 0.032
21,GATGGCTGTG,1.021 ± 0.01
22,TATTTTGCGT,1.002 ± 0.0024
23,TTAAGGAGGA,0.981 ± 0.03

row,Sequence,switch fluorescence ratio
1,TTCTTTTTAG,0.9793 ± 0.0051
2,GACAGTGGTA,0.973 ± 0.013
3,CAGGGGGGTC,1.022 ± 0.0065
4,TGTCGGGATG,1.01 ± 0.022
5,AGTATTTGAG,0.975 ± 0.023
6,ACTTAAAAGC,1 ± 0.019
7,ACAAGGTGAC,1.082 ± 0.0021
8,TAAAGGCACG,1.03 ± 0.07
9,ATAGGATTGC,0.982 ± 0.011
10,GGGGGCGCTG,1.02 ± 0.028
11,TTTGGGGTGC,1.09 ± 0.12
12,AGGGTTTGTT,1.02 ± 0.04
13,CATAAAACGG,1.0263 ± 8.3e-05
14,AGCATGAACT,1.07 ± 0.044
15,CCTTTGTGAT,1.499 ± 0.0089
16,TCATCGGGGC,1.03 ± 0.071
17,ATGTAAAGAC,1.05 ± 0.04
18,CGCTATATGG,1.32 ± 0.047
19,GGGATGGGCG,1.03 ± 0.031
